In article PMC9482650, “Quantitative fragmentomics allow affinity mapping of interactomes” (Nature Communications, 2022):

Columns and labels:
Experiment in all cases: holdup assay
Set-up in all cases: key: below the threshold = too weak to quantify, mostly under pKd 3.1 to 4
Conditions in all cases: plain residues with an end cap or a label only (N-terminal biotin on a linker: ado-ado)
DLG2_3, Q15700 = target: DLG2_3, Q15700
NHERF4_1, Q86UT5-2 = target: NHERF4_1, Q86UT5-2
NHERF4_2, Q86UT5 = target: NHERF4_2, Q86UT5
Chain of NHERF4_2, Q86UT5 (Q86UT5 220-308): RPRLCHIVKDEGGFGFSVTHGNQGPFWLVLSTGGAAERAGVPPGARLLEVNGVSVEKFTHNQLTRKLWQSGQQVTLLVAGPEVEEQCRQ

GRID2IP_1, A4D2P6 = target: GRID2IP_1, A4D2P6
Chain of GRID2IP_1, A4D2P6 (A4D2P6 1-87): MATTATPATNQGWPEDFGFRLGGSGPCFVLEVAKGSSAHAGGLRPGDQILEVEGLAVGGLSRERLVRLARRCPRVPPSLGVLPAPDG

TJP3_3, O95049 = target: T1, TJP3_3, O95049
T1 sequence (O95049 375-456, limits assumed, looked up): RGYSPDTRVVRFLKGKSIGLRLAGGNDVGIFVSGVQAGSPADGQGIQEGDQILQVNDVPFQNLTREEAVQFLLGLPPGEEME

DLG4_1, P78352 = target: DLG4_1, P78352
Chain of DLG4_1, P78352 (P78352 62-152): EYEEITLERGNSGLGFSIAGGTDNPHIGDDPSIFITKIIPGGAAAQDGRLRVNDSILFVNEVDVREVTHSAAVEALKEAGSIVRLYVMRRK

PARD3_3, Q8TEW0 = target: PARD3_3, Q8TEW0
Chain of PARD3_3, Q8TEW0 (Q8TEW0 582-685): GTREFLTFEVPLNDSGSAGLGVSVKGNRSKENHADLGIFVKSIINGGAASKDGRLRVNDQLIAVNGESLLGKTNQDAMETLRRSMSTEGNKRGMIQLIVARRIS

APBA1_2, Q02410 = target: T2, APBA1_2, Q02410
T2 sequence (Q02410 742-832, limits assumed, looked up): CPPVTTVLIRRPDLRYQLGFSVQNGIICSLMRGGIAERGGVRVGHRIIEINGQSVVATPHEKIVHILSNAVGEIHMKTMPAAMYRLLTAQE

ARHGAP21, Q5T5U3 = target: T3, ARHGAP21, Q5T5U3
T3 sequence (Q5T5U3 45-169, limits assumed, looked up): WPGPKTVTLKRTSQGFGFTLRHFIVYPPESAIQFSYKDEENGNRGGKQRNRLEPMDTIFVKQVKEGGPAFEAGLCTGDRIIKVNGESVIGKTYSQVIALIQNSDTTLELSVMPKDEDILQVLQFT

ARHGEF11, O15085 = target: T4, ARHGEF11, O15085
T4 sequence (O15085 42-136, limits assumed, looked up): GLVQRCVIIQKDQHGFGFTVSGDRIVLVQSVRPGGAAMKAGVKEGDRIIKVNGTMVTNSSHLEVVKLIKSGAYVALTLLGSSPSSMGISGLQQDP

MAGI3_2, Q5TCQ9 = target: MAGI3_2, Q5TCQ9
Chain of MAGI3_2, Q5TCQ9 (Q5TCQ9 398-503): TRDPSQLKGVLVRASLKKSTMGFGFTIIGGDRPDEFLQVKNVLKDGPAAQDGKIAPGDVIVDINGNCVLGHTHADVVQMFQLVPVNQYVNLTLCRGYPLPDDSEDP

LIN7C, Q9NUP9 = target: T5, LIN7C, Q9NUP9
T5 sequence (Q9NUP9 88-185, limits assumed, looked up): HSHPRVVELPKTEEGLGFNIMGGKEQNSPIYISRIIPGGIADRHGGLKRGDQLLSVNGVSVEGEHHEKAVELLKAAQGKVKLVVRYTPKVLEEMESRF

SHANK1, Q9Y566 = target: T6, SHANK1, Q9Y566
T6 sequence (Q9Y566 658-767, limits assumed, looked up): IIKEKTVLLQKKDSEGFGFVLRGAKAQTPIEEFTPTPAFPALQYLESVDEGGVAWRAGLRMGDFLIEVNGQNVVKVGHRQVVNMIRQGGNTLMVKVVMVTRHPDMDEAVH

MAGI2_3, Q86UL8 = target: MAGI2_3, Q86UL8
Chain of MAGI2_3, Q86UL8 (Q86UL8 600-682): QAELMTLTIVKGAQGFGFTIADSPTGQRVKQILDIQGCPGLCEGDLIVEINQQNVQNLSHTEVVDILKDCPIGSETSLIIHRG

Inadl_2, Q8NI35 = target: Inadl_2, Q8NI35
Chain of Inadl_2, Q8NI35 (Q8NI35 238-335): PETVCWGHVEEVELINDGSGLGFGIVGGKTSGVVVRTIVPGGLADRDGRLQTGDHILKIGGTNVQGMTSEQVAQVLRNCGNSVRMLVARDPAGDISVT

FRMPD2_1, Q68DX3 = target: FRMPD2_1, Q68DX3
Chain of FRMPD2_1, Q68DX3 (Q68DX3 770-861): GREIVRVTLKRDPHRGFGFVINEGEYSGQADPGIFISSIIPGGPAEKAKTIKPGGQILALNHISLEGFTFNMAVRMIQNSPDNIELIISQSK

LRRC7, Q96NW7 = target: T7, LRRC7, Q96NW7
T7 sequence (Q96NW7 1440-1537, limits assumed, looked up): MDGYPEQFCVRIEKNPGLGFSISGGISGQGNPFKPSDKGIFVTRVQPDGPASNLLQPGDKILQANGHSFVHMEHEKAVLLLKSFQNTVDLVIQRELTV

LNX2_3, Q8N448 = target: T8, LNX2_3, Q8N448
T8 sequence (Q8N448 463-564, limits assumed, looked up): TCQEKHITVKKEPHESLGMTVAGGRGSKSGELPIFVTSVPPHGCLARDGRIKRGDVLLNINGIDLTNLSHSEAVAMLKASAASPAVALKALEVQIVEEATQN

PDLIM1, O00151 = target: PDLIM1, O00151
Chain of PDLIM1, O00151 (O00151 1-87): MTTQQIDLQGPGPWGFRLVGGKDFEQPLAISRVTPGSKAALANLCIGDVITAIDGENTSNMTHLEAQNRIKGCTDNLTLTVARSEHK

Inadl_4, Q8NI35 = target: Inadl_4, Q8NI35
Chain of Inadl_4, Q8NI35 (Q8NI35 547-651): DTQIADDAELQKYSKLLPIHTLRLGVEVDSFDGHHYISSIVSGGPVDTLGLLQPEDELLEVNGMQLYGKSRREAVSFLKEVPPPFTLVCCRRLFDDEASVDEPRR

Inadl_8, Q8NI35 = target: Inadl_8, Q8NI35
Chain of Inadl_8, Q8NI35 (Q8NI35 1425-1530): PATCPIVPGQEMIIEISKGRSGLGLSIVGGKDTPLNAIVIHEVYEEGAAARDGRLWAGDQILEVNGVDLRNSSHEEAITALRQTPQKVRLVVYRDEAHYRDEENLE

SCRIB_2, Q14160 = target: SCRIB_2, Q14160
Chain of SCRIB_2, Q14160 (Q14160 857-960): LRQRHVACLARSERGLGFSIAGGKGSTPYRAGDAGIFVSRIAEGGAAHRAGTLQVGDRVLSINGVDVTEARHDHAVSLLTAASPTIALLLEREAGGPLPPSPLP

LDB3, O75112 = target: LDB3, O75112
Chain of LDB3, O75112 (O75112 1-94): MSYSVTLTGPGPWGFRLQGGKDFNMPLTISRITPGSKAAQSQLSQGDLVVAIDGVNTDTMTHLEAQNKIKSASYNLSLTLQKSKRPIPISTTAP

RAPGEF6, Q8TEU7 = target: T9, RAPGEF6, Q8TEU7
T9 sequence (Q8TEU7 525-625, limits assumed, looked up): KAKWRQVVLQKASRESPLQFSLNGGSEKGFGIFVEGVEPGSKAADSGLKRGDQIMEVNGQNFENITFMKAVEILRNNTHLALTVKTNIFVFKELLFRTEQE

MAGI2_4, Q86UL8 = target: MAGI2_4, Q86UL8
Chain of MAGI2_4, Q86UL8 (Q86UL8 772-865): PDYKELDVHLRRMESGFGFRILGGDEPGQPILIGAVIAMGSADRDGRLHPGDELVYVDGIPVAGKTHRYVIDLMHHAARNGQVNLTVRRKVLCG

PTPN3, P26045 = target: PTPN3, P26045
Chain of PTPN3, P26045 (P26045 505-587): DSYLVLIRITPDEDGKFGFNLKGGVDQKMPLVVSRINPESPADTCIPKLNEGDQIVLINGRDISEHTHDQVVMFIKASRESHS

FRMPD2_2, Q68DX3 = target: FRMPD2_2, Q68DX3
Chain of FRMPD2_2, Q68DX3 (Q68DX3 944-1038): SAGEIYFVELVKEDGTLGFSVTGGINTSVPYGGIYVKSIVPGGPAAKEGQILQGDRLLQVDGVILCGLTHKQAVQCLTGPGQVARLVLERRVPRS

APBA1_1, Q02410 = target: T10, APBA1_1, Q02410
T10 sequence (Q02410 651-752, limits assumed, looked up): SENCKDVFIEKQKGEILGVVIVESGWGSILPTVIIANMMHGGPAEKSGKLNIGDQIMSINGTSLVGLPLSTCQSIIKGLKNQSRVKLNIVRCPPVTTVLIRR

Chain of NHERF4_1, Q86UT5-2 (Q86UT5 other isoform, or with tags, fused parts or gaps): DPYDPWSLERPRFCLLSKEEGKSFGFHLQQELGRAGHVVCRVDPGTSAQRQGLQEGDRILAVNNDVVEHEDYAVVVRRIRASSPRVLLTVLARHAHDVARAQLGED

Binder | pKd (DLG2_3, Q15700) | pKd (NHERF4_1, Q86UT5-2) | pKd (NHERF4_2, Q86UT5) | pKd (GRID2IP_1, A4D2P6) | pKd (TJP3_3, O95049) | pKd (DLG4_1, P78352) | pKd (PARD3_3, Q8TEW0) | pKd (APBA1_2, Q02410) | pKd (ARHGAP21, Q5T5U3) | pKd (ARHGEF11, O15085) | pKd (MAGI3_2, Q5TCQ9) | pKd (LIN7C, Q9NUP9) | pKd (SHANK1, Q9Y566) | pKd (MAGI2_3, Q86UL8) | pKd (Inadl_2, Q8NI35) | pKd (FRMPD2_1, Q68DX3) | pKd (LRRC7, Q96NW7) | pKd (LNX2_3, Q8N448) | pKd (PDLIM1, O00151) | pKd (Inadl_4, Q8NI35) | further results
RGKNRRQSIF [CDK18, Q07002] | 4.11 | 3.87 | below the threshold | below the threshold | below the threshold | below the threshold | below the threshold | 3.47 | below the threshold | below the threshold | below the threshold | 3.5 | below the threshold | 3.64 | below the threshold | 3.5 | below the threshold | below the threshold | below the threshold | below the threshold | pKd (Inadl_8, Q8NI35): below the threshold; pKd (SCRIB_2, Q14160): below the threshold; pKd (LDB3, O75112): below the threshold; pKd (RAPGEF6, Q8TEU7): 3.67; pKd (MAGI2_4, Q86UL8): below the threshold; pKd (PTPN3, P26045): 3.77; pKd (FRMPD2_2, Q68DX3): below the threshold; pKd (APBA1_1, Q02410): below the threshold
THHRKIHTRV [ZNF599, Q96NL3] | 4.41 | 3.72 | below the threshold | 3.6 | below the threshold | 4.98 | below the threshold | 3.62 | 4.01 | 4.25 | 5.32 | below the threshold | 4.01 | 3.82 | below the threshold | 3.89 | below the threshold | 3.51 | below the threshold | 3.57 | pKd (Inadl_8, Q8NI35): 4.38; pKd (SCRIB_2, Q14160): 4.15; pKd (LDB3, O75112): below the threshold; pKd (RAPGEF6, Q8TEU7): below the threshold; pKd (MAGI2_4, Q86UL8): below the threshold; pKd (PTPN3, P26045): below the threshold; pKd (FRMPD2_2, Q68DX3): 3.52; pKd (APBA1_1, Q02410): below the threshold
VISSDDLTEL [CAPN6, Q9Y6Q1] | 3.53 | 3.94 | below the threshold | below the threshold | below the threshold | below the threshold | 3.84 | 3.79 | below the threshold | 4.45 | below the threshold | below the threshold | 4.84 | 3.68 | below the threshold | below the threshold | below the threshold | below the threshold | below the threshold | below the threshold | pKd (Inadl_8, Q8NI35): below the threshold; pKd (SCRIB_2, Q14160): below the threshold; pKd (LDB3, O75112): 3.53; pKd (RAPGEF6, Q8TEU7): below the threshold; pKd (MAGI2_4, Q86UL8): below the threshold; pKd (PTPN3, P26045): 4.12; pKd (FRMPD2_2, Q68DX3): below the threshold; pKd (APBA1_1, Q02410): below the threshold
QLGSPTADLA [SIPA1, Q96FS4] | 3.57 | below the threshold | below the threshold | below the threshold | below the threshold | below the threshold | below the threshold | below the threshold | below the threshold | below the threshold | below the threshold | 3.69 | below the threshold | 3.56 | below the threshold | below the threshold | below the threshold | below the threshold | below the threshold | below the threshold | pKd (Inadl_8, Q8NI35): below the threshold; pKd (SCRIB_2, Q14160): below the threshold; pKd (LDB3, O75112): below the threshold; pKd (RAPGEF6, Q8TEU7): below the threshold; pKd (MAGI2_4, Q86UL8): below the threshold; pKd (PTPN3, P26045): below the threshold; pKd (FRMPD2_2, Q68DX3): below the threshold; pKd (APBA1_1, Q02410): below the threshold
NKSEPFLTWL [WWTR1, Q9GZV5] | below the threshold | 4.46 | below the threshold | below the threshold | 4.15 | 3.49 | 4.78 | 4.89 | 4.88 | 5.33 | 3.89 | 3.58 | 5.29 | 3.48 | 3.92 | below the threshold | 4.31 | below the threshold | 4.13 | below the threshold | pKd (Inadl_8, Q8NI35): below the threshold; pKd (SCRIB_2, Q14160): below the threshold; pKd (LDB3, O75112): 4.47; pKd (RAPGEF6, Q8TEU7): below the threshold; pKd (MAGI2_4, Q86UL8): 3.85; pKd (PTPN3, P26045): 4.74; pKd (FRMPD2_2, Q68DX3): 4.29; pKd (APBA1_1, Q02410): 4.11
